Data on 3 substances can be found in paper PMC12089306.

This test addresses TEAD4 (UniProt Q15561). The test is described as follows: co-immunoprecipitation. Particulars: reference: wild type SP1.

“SP1 (from UniProt P08047) S670 single mutant”: the “binding against the reference” value (sites S670) is “weaker”. “SP1 (from UniProt P08047) T681 single mutant”: the “binding against the reference” value (sites T681) is “weaker”. On to “SP1 (from UniProt P08047) T668 single mutant”, for which the “binding against the reference” value (sites T668) was “weaker”.
